Among the data in publication PMC9131872 are stoichiometry N values, retold here.

The experiment concerns the target African swine fever virus (ASFV) decapping enzyme g5R protein, recombinant wild type (residues 1 to 250) (African swine fever virus (ASFV)) (UniProt P32092). Put plainly: cross-linking.

With “African swine fever virus (ASFV) decapping enzyme g5R protein, recombinant wild type (residues 1 to 250) (from UniProt P32092 1-250)”, the stoichiometry N was 2.

By stoichiometry N is commonly meant a count of units in the complex or per binding partner.
